Assay results published in article PMC4337892 (Molecular cell, 2014).

Experiments:
[1] = target: T1, H. sapiens laforin residues 1-328, wild-type (human), O95278; assay: AUC; conditions: remark: other sources report otherwise
T1 chain: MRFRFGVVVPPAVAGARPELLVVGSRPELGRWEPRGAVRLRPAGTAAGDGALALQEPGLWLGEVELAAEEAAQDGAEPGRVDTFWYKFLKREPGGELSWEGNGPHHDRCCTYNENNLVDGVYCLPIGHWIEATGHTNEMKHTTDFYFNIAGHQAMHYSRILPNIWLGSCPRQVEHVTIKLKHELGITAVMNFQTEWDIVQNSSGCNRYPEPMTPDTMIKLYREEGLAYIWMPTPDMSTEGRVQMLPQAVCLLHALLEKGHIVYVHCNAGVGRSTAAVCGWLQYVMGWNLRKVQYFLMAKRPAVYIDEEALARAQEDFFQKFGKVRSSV

SEC-SAXS = target: the molecule itself; assay: SEC-SAXS

B1: H. sapiens laforin residues 1-328, wild-type, O95278 1-328 (enzyme)
chain: MRFRFGVVVPPAVAGARPELLVVGSRPELGRWEPRGAVRLRPAGTAAGDGALALQEPGLWLGEVELAAEEAAQDGAEPGRVDTFWYKFLKREPGGELSWEGNGPHHDRCCTYNENNLVDGVYCLPIGHWIEATGHTNEMKHTTDFYFNIAGHQAMHYSRILPNIWLGSCPRQVEHVTIKLKHELGITAVMNFQTEWDIVQNSSGCNRYPEPMTPDTMIKLYREEGLAYIWMPTPDMSTEGRVQMLPQAVCLLHALLEKGHIVYVHCNAGVGRSTAAVCGWLQYVMGWNLRKVQYFLMAKRPAVYIDEEALARAQEDFFQKFGKVRSSV
- stoichiometry N [1]: 2

B2: H. sapiens laforin residues 1-328, C266S (enzyme, human, UniProt O95278 1-328, looked up)
chain: MRFRFGVVVPPAVAGARPELLVVGSRPELGRWEPRGAVRLRPAGTAAGDGALALQEPGLWLGEVELAAEEAAQDGAEPGRVDTFWYKFLKREPGGELSWEGNGPHHDRCCTYNENNLVDGVYCLPIGHWIEATGHTNEMKHTTDFYFNIAGHQAMHYSRILPNIWLGSCPRQVEHVTIKLKHELGITAVMNFQTEWDIVQNSSGCNRYPEPMTPDTMIKLYREEGLAYIWMPTPDMSTEGRVQMLPQAVCLLHALLEKGHIVYVHSNAGVGRSTAAVCGWLQYVMGWNLRKVQYFLMAKRPAVYIDEEALARAQEDFFQKFGKVRSSV
- stoichiometry N (SEC-SAXS): 2
